# Laboratory results published in patent US7470669B2, “Isolated polypeptide comprising a leptin fragment” (Serono Genetics Institute, S.A., priority 1999, dated 2008).
# B1: C-terminal portion from AA 353 to 541: truncated human LSR construct, AA 353 to 541 (protein, UniProt Q86X29 353-541, looked up, fragment)
# chain: PGGYPGDVDRSSSAGGQGSYVPLLRDTDSSVASEVRSGYRIQASQQDDSMRVLYYMEKELANFDPSRPGPPSGRVERAMSEVTSLHEDDWRSRPSRGPALTPIRDEEWGGHSPRSPRGWDQEPAREQAGGGWRARRPRARSVDALDDLTPPSTAESGSRSPTSNGGRSRAYMPPRSRSRDDLYDQDDSR
# B2: Lactoferrin: a milk protein that inhibits the removal of dietary lipid by the liver; inhibitor of LSR (protein, UniProt P02788 20-710, looked up)
# Lactotransferrin: GRRRSVQWCAVSQPEATKCFQWQRNMRKVRGPPVSCIKRDSPIQCIQAIAENRADAVTLDGGFIYEAGLAPYKLRPVAAEVYGTERQPRTHYYAVAVVKKGGSFQLNELQGLKSCHTGLRRTAGWNVPIGTLRPFLNWTGPPEPIEAAVARFFSASCVPGADKGQFPNLCRLCAGTGENKCAFSSQEPYFSYSGAFKCLRDGAGDVAFIRESTVFEDLSDEAERDEYELLCPDNTRKPVDKFKDCHLARVPSHAVVARSVNGKEDAIWNLLRQAQEKFGKDKSPKFQLFGSPSGQKDLLFKDSAIGFSRVPPRIDSGLYLGSGYFTAIQNLRKSEEEVAARRARVVWCAVGEQELRKCNQWSGLSEGSVTCSSASTTEDCIALVLKGEADAMSLDGGYVYTAGKCGLVPVLAENYKSQQSSDPDPNCVDRPVEGYLAVAVVRRSDTSLTWNSVKGKKSCHTAVDRTAGWNIPMGLLFNQTGSCKFDEYFSQSCAPGSDPRSNLCALCIGDEQGENKCVPNSNERYYGYTGAFRCLAENAGDVAFVKDVTVLQNTDGNNNEAWAKDLKLADFALLCLDGKRKPVTEARSCHLAMAPNHAVVSRMDKVERLKQVLLHQQAKFGRNGSDCPDKFCLFQSETKNLLFNDNTECLARLHGKTTYEKYLGPQYVAGITNLKKCSTSPLLEACEFLRK
# How the values were obtained:
# LSR = assay: BUD assay of 125I-LDL in PLC cells transfected with truncated human LSR; format: cell-based; details: corrected for total protein, depending on oleate concentration
# Text: Method of Cloning & Testing. • 1. Digest Human LSR plasmids with enzymes of interest under appropriate conditions. Separate the appropriate insert fragment from the vector using agarose gel electrophoresis and Qiaquick gel extraction columns. Note: For constructs 1, 2, 3, 4a, 5, and 6 pTracerCMV2 LSR α was used as the source for the insert. For construct 4b, pTracerCMV2 LSR α′ was used as the source for the insert. For 4c, pTracerCMV2 LSR β was used as the source for the insert. • 2. Digest the pcDNA/HisMax vector in the appropriate reading frame with the enzymes of interest. Purify using agarose gel electrophoresis and Qiaquick gel extraction columns. • 3. If necessary, treat insert fragments with Klenow DNA polymerase or T4 DNA polymerase I to blunt 3′ overhangs. […] Verify correct clones by having them sequenced to ensure that they are in the proper reading frame and that there are no amino acid changes. • 8. […]
# BUD Assay Methods: • 1. […] Remove suramin into gamma counter tubes, and count for radioactivity. […] Recover the cell lysates into gamma counter tubes and count for radioactivity. […] After cell lysates have been counted, determine the protein concentration per mL so that data can be reported as ng ^125I-LDL bound/mg of total protein. Protein is determined using the BCA assay from Pierce according to the manufacturer's instructions. […]
# [1] = system: bovine brain capillary endothelial cells; assay: Leptin transcytosis in blood-brain barrier in vitro model; format: cell-based; details: 10 ng/mL 125I-leptin + 2 mg/mL lactoferrin
# Protocol: Cells were incubated with ^125I-leptin alone (10,000 dpm/ng) (closed squares), with 1 μg/mL unlabelled leptin (triangles), 50 μg/mL MP (circles), 50 μg/mL HP (open squares), or 2 mg/mL lactoferrin (asterisks).
# Human leptin transport through the blood-brain barrier (BBB) is studied using an in vitro model (Dehouck, et al J Neurochem 54:1798-801, 1990 hereby incorporated herein by reference in its entirety including any figures, tables, or drawings). This model closely mimics the in vivo situation with regard to the selective passage of nutrients and drugs through the cerebro-vascular endothelium. […] Briefly, this model consists of a co-culture of bovine brain capillary endothelial cells (ECs) and rat astrocytes (FIG. 31). The astrocytes are seeded on the plastic of a six-well dish and grown for 3 weeks. […]
# Leptin transcytosis: Experiments were performed on brain capillary endothelial cells in coculture with astrocytes for 16 days. […] At the end of the experiment, the amount of radioactivity of each well was counted. […]
# The transport of molecules through the endothelial monolayer was determined for each time point as % passage: % passage of radiolabelled molecule through the endothelium: dpm found in the lower compartment at a time point divided by the initial dpm found in the upper compartment: % transport at 30 min=(lower dpm t30/upper dpm)*100.
# ob/ob mice = assay: Postprandial plasma TG response after high-fat test meal in ob/ob mice; format: in vivo, mouse; details: i.v. 0.5 μg recombinant mouse leptin and/or 2.5 mg lactoferrin, mean ± SD
# Protocol: FIGS. 11A and 11B show the effect of mouse leptin (FIG. 11A) or leptin peptide (FIG. 11B) on postprandial plasma TG response in ob/ob mice. […] Postprandial triglyceridemia was measured as described previously. Each point represents the mean±SEM (A: saline, n=8, leptin, n=7; leptin peptide: saline, n=8, leptin, n=8). […] Primary cultures of rat hepatocytes were incubated 30 min at 37° C. with increasing concentrations of mouse leptin peptide. Oleate (0.5 mM) and ^125I-LDL (20 μg/mL) were added and the cells were incubated 2 h at 37° C. After washing, the amount of 125I-LDL bound to the cell surface was measured as described in the Examples section herein.
# Mice that were fasted for 2-3 hours were gavage-fed 300 μL of a test meal consisting of 60% fat (37% saturated, 27% mono-, and 36% polyunsaturated fatty acids), 20% protein and 20% carbohydrate, and providing 56 kcal of energy/kg (1.5 g butter, 1.5 g sunflower oil, 2.5 g nonfat dry milk, 2.5 g sucrose and 3 ml water). […] TG concentrations were determined using a commercially available enzymatic kit with controls included in each assay (Precinorm L, Roche-Boehringer Mannheim; Lyotrol N, BioMérieux).
# The inhibition of the intestinal absorption of dietary lipids by leptin was also investigated. […] Blood samples were taken at 2 and 3 h after the test meal, and plasma TG concentrations were measured (see Table, below). […]
Molecule,increase in LDL metabolism (LSR),amount of leptin transported [1],Plasma TG 2-3 hours after test meal (ob/ob mice)
B1,~2 fold,,
B2,,significantly inhibited,2.02 ± 0.26^¶ mg/mL
